Laboratory results as given in PMC8534798, “Foxd4l1.1 Negatively Regulates Chordin Transcription in Neuroectoderm of Xenopus Gastrula” (Cells, 2021).

Legend:
HA-Smad3 (wild type) = HA-Smad3 (wild type) (human, UniProt P84022 1-425); assay: cell-based or functional assay
HA-Smad2 (wild type) = HA-Smad2 (wild type) (human, UniProt Q15796 1-467); assay: cell-based or functional assay
HA-Smad2 (wild type), sequence (Q15796 whole entry): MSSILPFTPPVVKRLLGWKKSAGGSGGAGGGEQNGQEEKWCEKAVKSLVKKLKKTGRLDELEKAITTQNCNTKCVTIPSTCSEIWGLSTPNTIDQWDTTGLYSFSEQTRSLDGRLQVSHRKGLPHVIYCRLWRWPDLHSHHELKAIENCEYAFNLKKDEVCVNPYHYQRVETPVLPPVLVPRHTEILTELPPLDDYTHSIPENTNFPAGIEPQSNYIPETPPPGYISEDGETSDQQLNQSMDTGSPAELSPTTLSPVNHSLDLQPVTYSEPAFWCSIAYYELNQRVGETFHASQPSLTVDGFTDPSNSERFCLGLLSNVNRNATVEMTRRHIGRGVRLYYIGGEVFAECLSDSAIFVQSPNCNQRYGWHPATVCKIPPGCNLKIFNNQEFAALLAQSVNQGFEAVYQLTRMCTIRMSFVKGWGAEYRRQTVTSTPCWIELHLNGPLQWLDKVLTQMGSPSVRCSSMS

HA-Smad3 (wild type), sequence (P84022 whole entry): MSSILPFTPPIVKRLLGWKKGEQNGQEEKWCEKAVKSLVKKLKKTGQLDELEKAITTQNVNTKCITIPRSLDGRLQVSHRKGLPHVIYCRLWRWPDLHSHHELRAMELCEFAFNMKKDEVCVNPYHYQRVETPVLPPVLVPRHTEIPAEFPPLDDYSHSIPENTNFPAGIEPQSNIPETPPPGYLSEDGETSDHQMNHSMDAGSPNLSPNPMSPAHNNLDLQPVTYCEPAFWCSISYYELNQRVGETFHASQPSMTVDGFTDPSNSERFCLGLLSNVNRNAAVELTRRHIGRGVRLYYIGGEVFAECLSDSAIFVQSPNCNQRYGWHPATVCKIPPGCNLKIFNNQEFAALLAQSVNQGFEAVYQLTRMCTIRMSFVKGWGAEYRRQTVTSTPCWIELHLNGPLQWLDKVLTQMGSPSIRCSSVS

ChIP-qPCR: occupancy of HA-Smad3 on the AREs of the chrd promoter without and with co-injected Flag-Foxd4l1.1 (fold enrichment) (HA-Smad3 (wild type)): 4.02 fold
ChIP-qPCR: occupancy of HA-Smad2 on the AREs of the chrd promoter without and with co-injected Flag-Foxd4l1.1 (fold enrichment) (HA-Smad2 (wild type)): 7.3 fold
B1: Flag-Foxd4l1.1 (natural protein, Xenopus, UniProt Q9PRJ8 1-352, looked up)
chain: MSFSQESGAHHHPQDYAGLSDEEDEIDILGEDDPCSLKSHFYLQPTHSVMGDSEMLSPSKLSCTESESDSSGESEGGTSKDSSTTPTGSKAKRTLVKPPYSYIALITMAILQSPHKKLTLSGICDFISSKFPYYKDKFPAWQNSIRHNLSLNDCFIKIPREPGNPGKGNYWTLDPASEDMFDNGSFLRRRKRFKRHQQEFFKDGLMMYNSLPYYRPYSAIQPQPVLQQTSLTCMAIPETLPMSTHLAPYPDIKRKVSYPAQGVHRGFKAQDADNHPNNSQSKCSFSIENIMRKPKEPEPNIQSFNSHWNYNHVFQRPSSCLLPAVLNLSTGPLLANTQGARQYNLIQFPGCY
